How the values were obtained:
[1] = target: the molecule itself; assay: AUC; sedimentation velocity, DEC-205 ECD 0.2 mg ml^-1, TBS pH 8.0, 150 mM NaCl, 20 °C, 37,000 RPM
[2] = target: the molecule itself; assay: SEC-MALS; DEC-205 ECD, 50 ul at 1 mg ml^-1, Superdex 200 5/150, TBS (10 mM Tris-HCl pH 8.0, 150 mM NaCl)
[3] = target: the molecule itself; assay: AUC; sedimentation velocity, DEC-205 ECD 0.2 mg ml^-1, BIS-TRIS buffer pH 6.0, 150 mM NaCl, 20 °C, 37,000 RPM

B1: soluble DEC-205 ectodomain (ECD), residues 1-1664 (domain or fragment, human, UniProt O60449-1 28-1664, looked up)
chain: SGRAANDPFTIVHGNTGKCIKPVYGWIVADDCDETEDKLWKWVSQHRLFHLHSQKCLGLDITKSVNELRMFSCDSSAMLWWKCEHHSLYGAARYRLALKDGHGTAISNASDVWKKGGSEESLCDQPYHEIYTRDGNSYGRPCEFPFLIDGTWHHDCILDEDHSGPWCATTLNYEYDRKWGICLKPENGCEDNWEKNEQFGSCYQFNTQTALSWKEAYVSCQNQGADLLSINSAAELTYLKEKEGIAKIFWIGLNQLYSARGWEWSDHKPLNFLNWDPDRPSAPTIGGSSCARMDAESGLWQSFSCEAQLPYVCRKPLNNTVELTDVWTYSDTRCDAGWLPNNGFCYLLVNESNSWDKAHAKCKAFSSDLISIHSLADVEVVVTKLHNEDIKEEVWIGLKNINIPTLFQWSDGTEVTLTYWDENEPNVPYNKTPNCVSYLGELGQWKVQSCEEKLKYVCKRKGEKLNDASSDKMCPPDEGWKRHGETCYKIYEDEVPFGTNCNLTITSRFEQEYLNDLMKKYDKSLRKYFWTGLRDVDSCGEYNWATVGGRRRAVTFSNWNFLEPASPGGCVAMSTGKSVGKWEVKDCRSFKALSICKKMSGPLGPEEASPKPDDPCPEGWQSFPASLSCYKVFHAERIVRKRNWEEAERFCQALGAHLSSFSHVDEIKEFLHFLTDQFSGQHWLWIGLNKRSPDLQGSWQWSDRTPVSTIIMPNEFQQDYDIRDCAAVKVFHRPWRRGWHFYDDREFIYLRPFACDTKLEWVCQIPKGRTPKTPDWYNPDRAGIHGPPLIIEGSEYWFVADLHLNYEEAVLYCASNHSFLATITSFVGLKAIKNKIANISGDGQKWWIRISEWPIDDHFTYSRYPWHRFPVTFGEECLYMSAKTWLIDLGKPTDCSTKLPFICEKYNVSSLEKYSPDSAAKVQCSEQWIPFQNKCFLKIKPVSLTFSQASDTCHSYGGTLPSVLSQIEQDFITSLLPDMEATLWIGLRWTAYEKINKWTDNRELTYSNFHPLLVSGRLRIPENFFEEESRYHCALILNLQKSPFTGTWNFTSCSERHFVSLCQKYSEVKSRQTLQNASETVKYLNNLYKIIPKTLTWHSAKRECLKSNMQLVSITDPYQQAFLSVQALLHNSSLWIGLFSQDDELNFGWSDGKRLHFSRWAETNGQLEDCVVLDTDGFWKTVDCNDNQPGAICYYSGNETEKEVKPVDSVKCPSPVLNTPWIPFQNCCYNFIITKNRHMATTQDEVHTKCQKLNPKSHILSIRDEKENNFVLEQLLYFNYMASWVMLGITYRNKSLMWFDKTPLSYTHWRAGRPTIKNEKFLAGLSTDGFWDIQTFKVIEEAVYFHQHSILACKIEMVDYKEEYNTTLPQFMPYEDGIYSVIQKKVTWYEALNMCSQSGGHLASVHNQNGQLFLEDIVKRDGFPLWVGLSSHDGSESSFEWSDGSTFDYIPWKGQTSPGNCVLLDPKGTWKHEKCNSVKDGAICYKPTKSKKLSRLTYSSRCPAAKENGSRWIQYKGHCYKSDQALHSFSEAKKLCSKHDHSATIVSIKDEDENKFVSRLMRENNNITMRVWLGLSQHSVDQSWSWLDGSEVTFVKWENKSKSGVGRCSMLIASNETWKKVECEHGFGRVVCKVPLG
notes: signal peptide in the construct; Monomer at pH 6.0, tetramer at pH 8.0; In both reconstructions only R30 to E1383 (CysR to CTLD8) could be built; CTLD9 and CTLD10 are invisible; also called CD205; source: HEK293S, transient transfection, secreted, purified (FLAG resin, size exclusion)
For B1, the “stoichiometry N” value [1] was 6, the “stoichiometry N” value [2] was 4 and the “stoichiometry N” value [3] was 2.
